Experimental data: patent US20250312444A1 (BEIJING TUO JIE BIOPHARMACEUTICAL, published 2025)

T1: monkey serum albumin (CySA) (monkey)
T1 chain: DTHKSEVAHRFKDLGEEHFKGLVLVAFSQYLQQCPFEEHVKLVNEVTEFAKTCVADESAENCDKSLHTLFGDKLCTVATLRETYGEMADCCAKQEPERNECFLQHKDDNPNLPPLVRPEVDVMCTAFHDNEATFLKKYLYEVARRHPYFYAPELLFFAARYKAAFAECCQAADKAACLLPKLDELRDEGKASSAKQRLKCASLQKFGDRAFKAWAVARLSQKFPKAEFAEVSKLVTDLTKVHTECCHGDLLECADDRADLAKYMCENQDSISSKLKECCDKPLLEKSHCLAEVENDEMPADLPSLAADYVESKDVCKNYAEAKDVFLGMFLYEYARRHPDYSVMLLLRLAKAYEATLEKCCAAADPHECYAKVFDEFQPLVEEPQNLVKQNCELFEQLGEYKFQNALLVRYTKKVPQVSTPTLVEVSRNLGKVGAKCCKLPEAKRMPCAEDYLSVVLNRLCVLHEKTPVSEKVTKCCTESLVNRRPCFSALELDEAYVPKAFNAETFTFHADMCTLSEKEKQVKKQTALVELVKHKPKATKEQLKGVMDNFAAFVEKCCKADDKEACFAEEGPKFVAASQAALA

T2: human RXFP1 receptor (human, UniProt Q9HBX9 1-757)
T2 sequence (looked up): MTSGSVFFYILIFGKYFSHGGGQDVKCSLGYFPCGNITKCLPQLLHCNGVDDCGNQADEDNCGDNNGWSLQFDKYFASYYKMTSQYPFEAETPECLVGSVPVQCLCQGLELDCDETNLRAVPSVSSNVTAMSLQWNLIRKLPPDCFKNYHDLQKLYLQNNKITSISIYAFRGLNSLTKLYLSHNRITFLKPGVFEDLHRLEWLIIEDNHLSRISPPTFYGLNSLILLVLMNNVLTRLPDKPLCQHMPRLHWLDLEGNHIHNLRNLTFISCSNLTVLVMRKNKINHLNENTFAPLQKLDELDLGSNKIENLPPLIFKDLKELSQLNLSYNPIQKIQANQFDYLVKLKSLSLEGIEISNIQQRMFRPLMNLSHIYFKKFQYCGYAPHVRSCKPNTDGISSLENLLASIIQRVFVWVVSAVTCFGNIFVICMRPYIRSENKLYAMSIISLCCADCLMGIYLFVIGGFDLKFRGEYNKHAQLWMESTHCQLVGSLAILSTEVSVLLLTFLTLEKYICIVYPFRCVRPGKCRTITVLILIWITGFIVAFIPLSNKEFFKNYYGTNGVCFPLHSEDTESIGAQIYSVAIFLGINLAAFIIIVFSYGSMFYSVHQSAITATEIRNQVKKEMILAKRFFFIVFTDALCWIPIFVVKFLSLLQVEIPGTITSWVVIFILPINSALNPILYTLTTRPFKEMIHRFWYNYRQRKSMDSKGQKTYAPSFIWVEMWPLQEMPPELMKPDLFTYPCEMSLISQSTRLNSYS

T3: rat serum albumin (rat)
T3 chain: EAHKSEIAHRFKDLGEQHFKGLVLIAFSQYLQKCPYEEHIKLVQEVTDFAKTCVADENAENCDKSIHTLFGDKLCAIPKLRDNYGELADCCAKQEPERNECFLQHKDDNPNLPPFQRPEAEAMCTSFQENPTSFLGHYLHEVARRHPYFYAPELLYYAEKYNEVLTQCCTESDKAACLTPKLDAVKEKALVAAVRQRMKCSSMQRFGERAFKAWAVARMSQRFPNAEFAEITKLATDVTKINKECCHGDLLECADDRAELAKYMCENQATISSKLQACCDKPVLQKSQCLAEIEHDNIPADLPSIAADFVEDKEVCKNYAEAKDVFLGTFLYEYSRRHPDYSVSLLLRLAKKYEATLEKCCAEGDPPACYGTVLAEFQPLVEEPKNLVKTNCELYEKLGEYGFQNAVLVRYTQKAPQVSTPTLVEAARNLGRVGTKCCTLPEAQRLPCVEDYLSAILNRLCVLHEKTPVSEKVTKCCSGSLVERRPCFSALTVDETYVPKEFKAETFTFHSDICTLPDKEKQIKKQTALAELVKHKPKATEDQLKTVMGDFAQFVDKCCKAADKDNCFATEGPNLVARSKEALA


Tests used:
[1] = molecular target: mouse serum albumin (mSA) (mouse); experiment: phage supernatant ELISA, albumin coated
[2] = molecular target: human serum albumin (HSA) (human); experiment: phage supernatant ELISA, albumin coated
[3] = molecular target: T1, monkey serum albumin (CySA); experiment: phage supernatant ELISA, albumin coated
human RXFP1 receptor = molecular target: T2, human RXFP1 receptor; experiment: cell-based or functional assay
[4] = molecular target: human serum albumin (HSA) (human); experiment: SPR Biacore T200, fusion protein captured by anti-VHH antibody, albumin as analyte
Procedure: (§1) Coupling of an anti-VHH antibody (MonoRab™ Rabbit Anti-Camelid VHH Cocktail, Genescript, Cat No. A02014) to an S series CM5 sensor chip (GE, Cat No. 29-1049-88) was performed using an amino coupling kit (GE, Cat No. BR-1000-50). The antibody was diluted to 10 μg/mL with 10 mM sodium acetate (pH 4.5) (GE, Cat No. BR-1003-50). After the CM5 chip was activated with EDC/NHS, the diluted anti-VHH antibody was flowed over the chip to reach a surface response value of about 5000 RU, and then the chip was blocked with ethanolamine for later use.
(§2) The albumin from each species was serially diluted in a gradient with 1XHBS-EP (10 mM HEPES, pH 7.4, 150 mM NaCl, 3 mM EDTA, 0.05% Surfactant P20). The test fusion protein molecule was captured using the anti-VHH antibody-coupled chip, with a response value of about 30 RU. Then, different concentrations of serum albumin were flowed over the surface of the chip for 3 min at a flow rate of 50 μL/min, with a dissociation time of 1-10 min (the dissociation time varied depending on the species of albumin). After the end of each cycle, the chip was regenerated using 10 mM glycine-hydrochloric acid (pH 1.5) (GE, Cat No. BR-1003-54). The reaction signals were detected in real-time using Biacore T200 (GE) to obtain the association and dissociation curves, and the data obtained were fitted with a Langmuir 1:1 binding model using the BIAevaluation version 4.1 software at appropriate concentration points to obtain the affinity values.

rat serum albumin [5] = molecular target: T3, rat serum albumin; experiment: as above
Procedure: as §1, §2

[6] = molecular target: mouse serum albumin (mSA) (mouse); experiment: SPR Biacore T200, albumin amine-coupled, fusion protein as analyte
Procedure: (§3) Coupling of serum albumins from different species to an S series CM5 sensor chip (GE, Cat. 29-1049-88) was performed using an amino coupling kit (GE, Cat No. BR-1000-50). The albumin from each species was diluted to 2 μg/mL. After the CM5 chip was activated with EDC/NHS, the diluted albumin was flowed over the chip to reach a surface response value of about 200 (180 to 230) RU, and then the chip was blocked with ethanolamine. The blank control channel also needed to be activated with EDC/NHS and blocked with ethanolamine. […] The samples of 0051 and 0054 at different concentrations were separately flowed through the albumin-coupled and blank channels for 3 min at a flow rate of 50 μL/min, with a dissociation time of 4 min. After the end of each cycle, the chip was regenerated using 10 mM glycine-hydrochloric acid (pH 1.5) (GE, Cat. #BR-1003-54). The reaction signals were detected in real-time using Biacore T200 (GE) to obtain the association and dissociation curves, and the data obtained were fitted with a Langmuir 1:1 binding model using the BIAevaluation version 4.1 software at appropriate concentration points to obtain the affinity values.

[7] = molecular target: human serum albumin (HSA) (human); experiment: as above
Procedure: as §3

rat serum albumin [8] = molecular target: T3, rat serum albumin; experiment: as above
Procedure: as §3

OD450 [1] [OD450] | OD450 [2] [OD450] | OD450 [3] [OD450] | EC50 (nM), cAMP production in THP1 cells, 1% HSA (human RXFP1 receptor) [nM] | EC50 (nM), cAMP production in THP1 cells, without HSA (human RXFP1 receptor) [nM] | Kd [4] [nM] | koff [4] [s⁻¹] | kon [4] [M⁻¹ s⁻¹] | Kd (rat serum albumin [5]) [nM] | koff (rat serum albumin [5]) [s⁻¹] | kon (rat serum albumin [5]) [M⁻¹ s⁻¹] | Kd [6] [nM] | koff [6] [s⁻¹] | kon [6] [M⁻¹ s⁻¹] | Kd [7] [nM] | koff [7] [s⁻¹] | kon [7] [M⁻¹ s⁻¹] | Kd (rat serum albumin [8]) [nM] | koff (rat serum albumin [8]) [s⁻¹] | kon (rat serum albumin [8]) [M⁻¹ s⁻¹] | Binder
1.12 | 1.69 | 1.75 | – | – | – | – | – | – | – | – | – | – | – | – | – | – | – | – | – | #7aHSA (VHH, also called clone #7) VHH: HVQLVESGGGSVQAGGSLRVSCVASGNTYLTSCMGWFRQAPGKEREGVASIYTVGGSTFYTNSVKGRFTISRDNAKNTVYLQMNSLQPEDTAMYYCAAGSPARCRLRDPTTFDYWGQGTQVTVSS
– | – | – | 23 | 2.08 | 9.68 | 0.000797 | 82300 | 159 | 0.00567 | 35700 | – | – | – | – | – | – | – | – | – | 0065 (other, Single-chain fusion: anti-HSA VHH, linker, relaxin-2 B chain, linker, relaxin-2 A chain; also called fusion protein 0065) EVQLLESGGGLVQPGGSLRLSCAASGFTFLTSCMGWFRQAPGKEREGVSSIYTVGGSTFYTNSVKGRFTISRDNSKNTLYLQMNSLRPEDTAVYYCAAGSPARCRLRDPTTFDYWGQGTLVTVSSGGGGQGGGGQGGGGQGGGGQGGGGQSWMEEVIKLCGRELVRAQIAICGMSTWSGGGSGGSGGGQLYSALANKCCHVGCTKRSLARFC
– | – | – | 19.8 | 8.5 | 5.59 | 0.00086 | 154000 | 58.5 | 0.00579 | 98900 | – | – | – | – | – | – | – | – | – | 0064 (other, Single-chain fusion: anti-HSA VHH, linker, relaxin-2 B chain, linker, relaxin-2 A chain; also called fusion protein 0064) EVQLLESGGGLVQPGGSLRLSCAASGNTYLTSCMGWFRQAPGKEREGVSSIYTVGGSTFYTNSVKGRFTISRDNSKNTLYLQMNSLQPEDTAVYYCAAGSPARCRLRDPTTFDYWGQGTLVTVSSGGGGQGGGGQGGGGQGGGGQGGGGQSWMEEVIKLCGRELVRAQIAICGMSTWSGGGSGGSGGGQLYSALANKCCHVGCTKRSLARFC
– | – | – | – | – | 15.8 | 0.000563 | 35700 | 183 | 0.0113 | 61500 | 1.37 | 0.0027 | 1.97e+06 | 0.099 | 0.000181 | 1.83e+06 | 1.06 | 0.00246 | 2.31e+06 | 0054 (other, also called positive control 0054; positive control molecule 0054) EVQLLESGGGLVQPGGSLRLSCAASGRYIDETAVAWFRQAPGKGREFVAGIGGGVDITYYADSVKGRFTISRDNSKNTLYLQMNSLRPEDTAVYYCAARPGRPLITSKVADLYPYWGQGTLVTVSSGGGGQGGGGQGGGGQGGGGQGGGGQSWMEEVIKLCGRELVRAQIAICGMSTWSGGGSGGSGGGQLYSALANKCCHVGCTKRSLARFC
1.09 | 1.52 | 1.82 | – | – | – | – | – | – | – | – | – | – | – | – | – | – | – | – | – | #9aHSA (VHH, also called clone #9) VHH: DVQLVESGGGSVQAGGSLRLSCAAAEYTYLNSCLGWFRQAPGKEREGVATIYMVGGSTFYADSVKGRFTISRDNAKNTVYLMMNSLKPEDTAMYYCAAGSPARCLRRDPTTFNYWGQGTQVTVSS
– | – | – | 21.5 | 5.22 | 9.65 | 0.000867 | 89900 | 145 | 0.00599 | 41300 | – | – | – | – | – | – | – | – | – | 0052 (other, Single-chain fusion: anti-HSA VHH, linker, relaxin-2 B chain, linker, relaxin-2 A chain; also called fusion protein 0052) EVQLLESGGGLVQPGGSLRLSCAASGFTFLTSCMGWFRQAPGKEREGVSSIYTVGGSTFYTNSVKGRFTISRDNSKNTLYLQMNSLRAEDTAVYYCAAGSPARCRLRDPTTFDYWGQGTLVTVSSPGPAPGPAPGPAPGPAPGPAPGPAPGPAPGPASWMEEVIKLCGRELVRAQIAICGMSTWSGGGSGGSGGGQLYSALANKCCHVGCTKRSLARFC
